# Reference: the PETadex activity labels (doi:10.3390/microorganisms12010138)
# Assays:
# PET [1] = test: Proxy for plastic degradation [Released monomer concentration (HPLC/LC-MS) (TPA)]; settings: pH 7
# PET [2] = test: Proxy for plastic degradation [Released monomer concentration (HPLC/LC-MS) (MHET)]; settings: pH 7
Protein,Proxy for plastic degradation (PET [1]),Proxy for plastic degradation (PET [2]; 37 °C),other results
unnamed (protein) MKKLLKVLLIIFLVIVVLVIGLVIFLTIASGKQNAPKEYWNAIASEGTIEKEYNKLGSYEFESKVYDAPKVDSHDNNFVVYMPKEEGTYPLVVMVNGSGTPWDKYKAVFEHFASWGYVVVGCNYEISWDGKHASETLDFALNTKEIADKVDTSKVAVCGHSQGGEGAFNAALEYDNSDMYKAIISLSPTNQELALGLKWGFNLDTDDMYAYRLENVTIPTMIIAGTGKFDSETVTPLYKMEDMFEQLNTDVVMARLSNNVDHGAVLYEANGYVIAWLDYYLKGIETNGTAFFGNEAEIKNNTRYQDFTSQKV,–,–,"Proxy for plastic degradation (PET [1]; 37 °C, part of the chain shown): 0 µM; Proxy for plastic degradation (PET [2]; 37 °C, part of the chain shown): 0 µM"
unnamed (protein) MQNPSAPVVETRQGALTGLTDENVHRWCGIPYAAPPVGDWRWRSPRPPERWDGVRDATAFSASSWQSSEYCQELGGGDPGQFSEDCLYLNVWSPVDRPGSLPVMVWLHGGGFTIGAGGLPPYHGKSLAARGVVVVTINYRLGHLGFFAHPALEGEEERVVHNFALLDQIAALEWVRENITAFGGDPHNVTLFGESAGARSVLSLLASPLAEGLFHKAIVQSGYTLPDTPRQQALQKGEALAAHFGLENATAEQLRAIPPESFWPLTAPLNIAPAPIVGDCVLPEAMLDVFFAARQHPVPVMIGSNSDEASVMAVFGIDLAGQIQKLRRERRFGLGLIKLLYPGVKGDEELGRQVCRDMAFTTMGYVVMQAQQRVGGLCWRYWFDYVAEAEHATYINGAWHGNEVPYVFDTLGQVEPSRQYVNERDLQFAARVADYWVSFARDAGTHDSLSGPTHWPACRKGRDVLLRIGVNKHAGFRLENRFMRARMSLFKRVMKHHVSLD,2 µM,0 µM,Proxy for plastic degradation (PET [1]; 37 °C): 0 µM; Proxy for plastic degradation (PET [2]): 0 µM
unnamed (protein) MNFPRASRLMQAAVLGGLMAVSAAATAQTNPYARGPNPTAASLEASAGPFTVRSFTVSRPSGYGAGTVYYPTNAGGTVGAIAIVPGYTARQSSIKWWGPRLASHGFVVITIDTNSTLDQPSSRSSQQMAALRQVASLNGTSSSPIYGKVDTARMGVMGWSMGGGGSLISAANNPSLKAAAPQAPWDSSTNFSSVTVPTLIFACENDSIAPVNSSALPIYDSMSRNAKQFLEINGGSHSCANSGNSNQALIGKKGVAWMKRFMDNDTRYSTFACENPNSTRVSDFRTANCS,–,–,Proxy for plastic degradation (PET [2]; part of the chain shown): 370 µM
unnamed (protein) MEKSVLIKGDNYDISGILSYKETVDKMPAVILCHGTGAQKNEVGDLFVILAEKLLQRGIASIRIDYAGCGDSKADQRELTFLGEVEDTKKAYQYICDLGCVDQKNIGILGFSQGARVVAELLKEMQEFTCVASWSGACQNGRGVFEGWFQEYYQEAEEHGYARIPMGWRDDLLLSKQWFDEIENTTPMDGLKKYTGPVLAVAGAADEIVPCSHTKEIMAEGTNEQSKMLILPGADHIFNVLSGDKTMSEHVLDVTADWFAEVMGGAKISK,4 µM,0 µM,–
unnamed (protein) MKKLLKVLLIIFLVIVVLVIGLVIFLTIASGKQNAPKEYWNAIASEGTIEKEYNKLGSYEFESKVYDAPKVDSHDNNFVVYMPKEEGTYPLVVMVNGSGTPWDKYKAVFEHFASWGYVVVGCNYEISWDGKHASETLDFALNTKEIADKVDTSKVAVCGHSQGGEGAFNAALEYDNSDMYKAIISLSPTNQELALGLKWGFNLDTDDMYAYRLENVTIPTMIIAGTGKFDSETVTPLYKMEDMFEQLNTDVVMARLSNNVDHGAVLYEANGYVIAWLDYYLKGIETNGTAFFGNEAEIKNNTRYQDFTSQKVK,6 µM,–,–
